In general, IC50 refers to the point on the concentration scale where inhibition reaches its midpoint.

For assay [1], the target named is bovine lung-derived ANP receptor (bovine). In words: competition radioligand binding: displacement of 125I-rat ANP from bovine lung membrane fraction, filter assay.
Assay [2] has as its target BK receptor derived from guinea pig ilea (guinea pig). In words: competition radioligand binding: inhibition of 3H-BK (200 pM) binding to guinea pig ileum membrane fraction; test compound at 10^-7 M.
Assay [3] has the same target. In words: competition radioligand binding: inhibition of 3H-BK (200 pM) binding to guinea pig ileum membrane fraction; test compound at 10^-8 M.

bovine lung-derived ANP receptor (bovine), sequence (P10730 42-537): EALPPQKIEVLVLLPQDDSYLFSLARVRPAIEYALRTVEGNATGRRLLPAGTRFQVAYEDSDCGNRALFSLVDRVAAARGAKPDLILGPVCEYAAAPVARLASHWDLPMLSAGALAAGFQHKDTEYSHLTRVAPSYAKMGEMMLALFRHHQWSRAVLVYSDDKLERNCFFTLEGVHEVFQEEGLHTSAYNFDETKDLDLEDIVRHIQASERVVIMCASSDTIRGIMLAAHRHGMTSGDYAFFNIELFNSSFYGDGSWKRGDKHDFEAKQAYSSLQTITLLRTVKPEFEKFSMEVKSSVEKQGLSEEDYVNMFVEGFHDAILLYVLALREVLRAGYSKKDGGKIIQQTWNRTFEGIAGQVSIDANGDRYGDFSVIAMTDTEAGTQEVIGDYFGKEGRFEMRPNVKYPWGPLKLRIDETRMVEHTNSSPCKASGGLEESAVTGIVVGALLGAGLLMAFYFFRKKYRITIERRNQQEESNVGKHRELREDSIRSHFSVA
BK receptor derived from guinea pig ilea (guinea pig), sequence (O70526 whole entry): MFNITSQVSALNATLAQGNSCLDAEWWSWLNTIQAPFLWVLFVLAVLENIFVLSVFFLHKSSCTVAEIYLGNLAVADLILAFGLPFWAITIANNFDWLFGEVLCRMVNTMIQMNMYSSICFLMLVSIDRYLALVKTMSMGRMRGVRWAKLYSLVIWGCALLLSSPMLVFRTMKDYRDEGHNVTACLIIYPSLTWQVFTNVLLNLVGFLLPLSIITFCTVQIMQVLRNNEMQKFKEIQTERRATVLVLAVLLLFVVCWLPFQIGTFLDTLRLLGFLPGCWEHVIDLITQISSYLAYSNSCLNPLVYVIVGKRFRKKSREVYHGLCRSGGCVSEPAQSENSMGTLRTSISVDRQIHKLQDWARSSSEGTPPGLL

Take “compound (g) (H-Phe-Gly-Gly-Arg-Ile-Asp-Arg-Ile-NH2) (peptide)”: the IC50 in assay [1] stood at 3.5 nM.
As to “compound (h) (H-Ala-Phe-Gly-Gly-Arg-Ile-Asp-Arg-Ile-Gly-Ala-Ala-NH2) (peptide)”, in assay [1], the IC50 worked out at 2.5 nM. This IC50 and that of the substance before are within 1.5-fold of each other.
Still for that read-out and setting: with “compound (k) (H-Phe-Gly-Gly-Arg-(N-Me)Ile-Asp-Arg-Ile-NH2) (peptide)” the figure was 21 nM.
For the substance “compound (m) (H-D-Arg-Arg-Pro-Hyp-Gly-Phe-Ser-D-Phe-Leu-Arg-OH) (peptide)”, the Percentage inhibition (%) in assay [2] was found to be 68%; in assay [3], 20%.

The values are drawn from patent EP0672680A1.
